Key:
[1] = target: T1, yeast KDM5 PHD finger (S. cerevisiae, Zn2+-bound; 15N-labelled); experiment: NMR titration
T1 chain: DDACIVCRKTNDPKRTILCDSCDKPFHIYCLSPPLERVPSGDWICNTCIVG

[2] = target: human KDM5D PHD1 finger (human, Zn2+-bound; 15N-labelled); experiment: NMR titration

- Kd [1]: 117 µM
- Kd [2]: 3500 µM
B1: H3K4me0 peptide (aa 1-12 of H3) (peptide, UniProt P68431 2-13, looked up)
peptide: ARTKQTARKSTG

Source: paper PMC3918441 (Cell reports, 2014)
